Tests used:
[1] = target: T1, NS3 (nonstructural protein 3, protease-helicase) (Hepatitis C virus genotype 1b (con1b), UniProt Q9WMX2 1027-1657); test: fluorescence anisotropy; 100 mM KCl; same data, two-sites fit, Kd1; 25 mM MOPS pH 6.5, 100 mM KCl, 0.1 mM EDTA, 2 mM beta-mercaptoethanol, 0.1 mg/ml BSA, 37 C, 30 min; RNA 2 nM unless stated, folded in 100 mM KCl; settings: protein: recombinant; label: 3'-6FAM; single-stranded
[2] = target: T1, NS3 (nonstructural protein 3, …); test: fluorescence anisotropy; 100 mM KCl; quadratic fit; 25 mM MOPS pH 6.5, 100 mM KCl, 0.1 mM EDTA, 2 mM beta-mercaptoethanol, 0.1 mg/ml BSA, 37 C, 30 min; RNA 2 nM unless stated, folded in 100 mM KCl; settings: protein: recombinant; label: 3'-6FAM; single-stranded
[3] = target: T1, NS3 (nonstructural protein 3, …); test: fluorescence anisotropy; 100 mM KCl; 6 nM RNA; 25 mM MOPS pH 6.5, 100 mM KCl, 0.1 mM EDTA, 2 mM beta-mercaptoethanol, 0.1 mg/ml BSA, 37 C, 30 min; RNA 2 nM unless stated, folded in 100 mM KCl; settings: protein: recombinant; label: 3'-6FAM; parallel G4 with 3' overhang 20 nt
[4] = target: T1, NS3 (nonstructural protein 3, …); test: fluorescence anisotropy; 100 mM KCl; 25 mM MOPS pH 6.5, 100 mM KCl, 0.1 mM EDTA, 2 mM beta-mercaptoethanol, 0.1 mg/ml BSA, 37 C, 30 min; RNA 2 nM unless stated, folded in 100 mM KCl; settings: protein: recombinant, label: 3'-6FAM
[5] = target: T1, NS3 (nonstructural protein 3, …); test: fluorescence anisotropy; 100 mM KCl; 5.4 nM RNA; 25 mM MOPS pH 6.5, 100 mM KCl, 0.1 mM EDTA, 2 mM beta-mercaptoethanol, 0.1 mg/ml BSA, 37 C, 30 min; RNA 2 nM unless stated, folded in 100 mM KCl; settings: protein: recombinant; label: 3'-6FAM; parallel G4 with 3' overhang 20 nt

T1 sequence (Q9WMX2 1027-1657): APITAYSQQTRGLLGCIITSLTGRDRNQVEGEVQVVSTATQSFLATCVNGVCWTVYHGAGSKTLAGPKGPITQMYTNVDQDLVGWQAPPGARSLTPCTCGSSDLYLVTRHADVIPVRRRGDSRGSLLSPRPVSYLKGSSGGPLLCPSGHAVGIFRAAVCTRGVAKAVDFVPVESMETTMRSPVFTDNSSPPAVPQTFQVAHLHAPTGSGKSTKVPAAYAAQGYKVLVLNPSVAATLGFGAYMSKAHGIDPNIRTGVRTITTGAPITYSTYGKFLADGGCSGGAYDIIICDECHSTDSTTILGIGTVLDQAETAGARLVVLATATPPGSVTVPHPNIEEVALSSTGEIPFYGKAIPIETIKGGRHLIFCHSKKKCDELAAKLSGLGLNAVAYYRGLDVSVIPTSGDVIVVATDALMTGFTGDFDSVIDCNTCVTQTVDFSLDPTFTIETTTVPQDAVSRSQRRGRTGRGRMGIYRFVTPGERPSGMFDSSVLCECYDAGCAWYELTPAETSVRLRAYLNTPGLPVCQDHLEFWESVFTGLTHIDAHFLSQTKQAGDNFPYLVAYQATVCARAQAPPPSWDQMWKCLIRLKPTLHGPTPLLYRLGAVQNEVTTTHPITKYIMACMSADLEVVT

B1: A20 (ssRNA)
RNA: AAAAAAAAAAAAAAAAAAAA
Kd [1]: 4.9 nM | Kd [2]: 6 ± 1 nM

B2: HCVG4-A20 (structured_RNA)
RNA: AAGGGCUGCGGGUGGGCAGGGAAAAAAAAAAAAAAAAAAAA
Kd [3]: 11 ± 3 nM

B3: NONHCVG4-A20 (structured_RNA)
RNA: AAGGGUGGGUGGGUGGGAAAAAAAAAAAAAAAAAAAA
Kd [3]: 12 ± 3 nM

B4: HCVG4 (structured_RNA)
RNA: AAGGGCUGCGGGUGGGCAGGGAA
Kd ([4]; parallel G4 (three-tetrad)): 17 ± 4 nM

B5: NONHCVG4 (structured_RNA)
RNA: AAGGGUGGGUGGGUGGGAA
Kd ([4]; parallel G4 (three-tetrad)): 23 ± 7 nM

B6: NEGG4 (structured_RNA)
RNA: AAGGGAGGGGGGGUCCUGGAGGAA
Kd ([4]; parallel G4 (two-tetrad)): 19 ± 5 nM

B7: NEGG4-A20 (structured_RNA)
RNA: AAGGGAGGGGGGGUCCUGGAGGAAAAAAAAAAAAAAAAAAAA
Kd [5]: 6 ± 2 nM
